Data on five molecules can be found in publication PMC5960609 (Biochemical pharmacology, 2018).

Sequences and labels used below:
B1: TH553, thioredoxin fusion of human AHR aa1-295 (CΔ553) (domain or fragment, UniProt P35869 1-295, looked up)
chain: MNSSSANITYASRKRRKPVQKTVKPIPAEGIKSNPSKRHRDRLNTELDRLASLLPFPQDVINKLDKLSVLRLSVSYLRAKSFFDVALKSSPTERNGGQDNCRAANFREGLNLQEGEFLLQALNGFVLVVTTDALVFYASSTIQDYLGFQQSDVIHQSVYELIHTEDRAEFQRQLHWALNPSQCTESGQGIEEATGLPQTVVCYNPDQIPPENSPLMERCFICRLRCLLDNSSGFLAMNFQGKLKYLHGQKKKGKDGSILPPQLALFAIATPLQPPSILEIRTKNFIFRTKHKLDF
B2: GST-p23 D108A (natural protein, human, UniProt Q15185 1-160, looked up)
chain: MQPASAKWYDRRDYVFIEFCVEDSKDVNVNFEKSKLTFSCLGGSDNFKHLNEIDLFHCIDPNDSKHKRTDRSILCCLRKGESGQSWPRLTKERAKLNWLSVDFNNWKAWEDDSDEDMSNFDRFSEMMNNMGGDEDVDLPEVDGADDDSQDSDDEKMPDLE
B3: GST-p23 D112A (natural protein, human, UniProt Q15185 1-160, looked up)
chain: B2 chain with A108D, D112A
B4: GST-p23 CΔ50 (p23 aa1-110, lacking the terminal 50 amino acids) (domain or fragment, human, UniProt Q15185 1-110, looked up)
chain: MQPASAKWYDRRDYVFIEFCVEDSKDVNVNFEKSKLTFSCLGGSDNFKHLNEIDLFHCIDPNDSKHKRTDRSILCCLRKGESGQSWPRLTKERAKLNWLSVDFNNWKDWE

Positions count from the first letter of the chain named. Names and notes keep the numbering of the source.

The target of experiment [1] is GST-p23 D108A (human) (UniProt Q15185). In words: pull-down.
Experiment [2] has as its target GST-p23 D112A (human) (UniProt Q15185). Nature of the experiment: pull-down.
The target of experiment [3] is GST-p23 W106A (human) (UniProt Q15185). Nature of the experiment: pull-down.
Experiment [4] concerns the target Full-length human ARNT expressed in Pichia (human, UniProt P27540 1-789). Nature of the experiment: native gel or EMSA.
Experiment [5] addresses B1. Nature of the experiment: pull-down.

Chain of Full-length human ARNT expressed in Pichia (P27540 whole entry): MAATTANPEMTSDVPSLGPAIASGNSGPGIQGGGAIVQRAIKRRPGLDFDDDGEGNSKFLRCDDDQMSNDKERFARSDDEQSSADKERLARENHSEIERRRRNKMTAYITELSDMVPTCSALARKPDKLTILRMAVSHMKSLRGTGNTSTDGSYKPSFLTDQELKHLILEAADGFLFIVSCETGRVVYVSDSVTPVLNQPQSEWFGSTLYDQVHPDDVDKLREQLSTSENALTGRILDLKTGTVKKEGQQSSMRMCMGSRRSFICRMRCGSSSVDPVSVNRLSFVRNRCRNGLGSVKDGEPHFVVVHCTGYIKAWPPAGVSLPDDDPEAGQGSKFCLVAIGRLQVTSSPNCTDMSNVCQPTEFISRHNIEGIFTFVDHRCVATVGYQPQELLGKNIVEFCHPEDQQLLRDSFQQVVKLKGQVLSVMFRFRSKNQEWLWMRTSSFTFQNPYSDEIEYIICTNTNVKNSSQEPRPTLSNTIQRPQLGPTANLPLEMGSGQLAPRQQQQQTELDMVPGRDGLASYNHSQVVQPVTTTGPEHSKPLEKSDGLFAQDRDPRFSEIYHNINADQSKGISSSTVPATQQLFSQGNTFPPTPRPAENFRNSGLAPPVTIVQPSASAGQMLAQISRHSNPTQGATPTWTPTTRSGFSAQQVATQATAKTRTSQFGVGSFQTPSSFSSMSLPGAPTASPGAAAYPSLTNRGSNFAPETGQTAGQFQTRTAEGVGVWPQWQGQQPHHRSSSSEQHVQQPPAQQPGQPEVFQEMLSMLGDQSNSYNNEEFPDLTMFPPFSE

Regarding “Histidine fusion of full-length human Hsp90 (from UniProt P07900 1-732) (natural protein)”, the Hsp90 co-precipitated, percent of wild-type p23 in experiment [1] is 12%; in experiment [2], 41%; in experiment [3], 19%.
As for B1, in experiment [4], the binding result is reported as “binds”.
B2: the binding result in experiment [5] is recorded as “binds”.
As to B3, the binding result in experiment [5] was “binds”.
Same read-out and setting: the same measure for B4: “binds”.
